This note sets out measurements from the supplement of paper PMC9170038.

The series concerns MS2 coat protein. The series can be described thus: apparent KD of MS2 coat protein; designed switch direction (-1 OFF switch, 1 ON switch): 1; higher = weaker reporter binding. In short, it runs like this:
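For each design, the apparent KD is the median over clusters of curves fitted to normalised cluster fluorescence. Clusters held RNA switches with common flanks, transcribed on Illumina chips by stalled E. coli RNA polymerase. These were titrated with SNAP-549-labelled MS2 coat protein, doubling from 0.7 or 1.5 nM to 3 µM, without input, with 200 uM small-molecule ligand, or with an oligonucleotide input.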

Setting [1] is: Eterna round: R95, input ligand: FMN 200 uM.
The mark [2] stands for this setting: Eterna round: R95, input ligand: microRNA oligo, concentration not stated.
Setting [3] is: Eterna round: R95, input ligand: none.
Where [4] appears, read: input ligand: microRNA oligo, concentration not stated.

In the case of “ACACUUGCACAUGAGGAUCACCCAUGUUGACAAGCUUUUUGCUCGUCUUAUAGAACAAAGAAGAAGAACAACAGAAA [Victory 2] (puzzle: Sensor for hsa-mir-208a version 2)”, the “apparent KD of MS2 coat protein” value came out at 20.7 nM under setting [1], 17.9 nM under setting [2] and 21.9 nM under setting [3].
Consider “ACAUGAAAUAGAGGAUAUUUUGUACCUACAUGUGACAUGAGGAUCACCCAUGUGGUAAGUAUGAGAAAGAAGGCUAAGAUAUGU [Equivalence 12 - Jieux - Same State NG 2] (Eterna round: R96, puzzle: Same State NG 2)”, for which the “apparent KD of MS2 coat protein” value (input ligand: FMN 200 uM) came out at 18.6 nM, the “apparent KD of MS2 coat protein” value under setting [4] was determined as 30.3 nM and the “apparent KD of MS2 coat protein” value (input ligand: none) worked out at 48.6 nM.
On to “ACAUGAGACCAAGGAUAUUUUGUACCUACAUGUGACAUGAGGAUCACCCAUGUGGUAAGUAUGAGGGAGAAGGUGGAGAUAUGU [Equivalence 24 - Jieux - Same State NG 2] (Eterna round: R96, puzzle: Same State NG 2)”, for which the “apparent KD of MS2 coat protein” value was 54.3 nM (input ligand: FMN 200 uM), 48.7 nM under setting [4] and 73.7 nM (input ligand: none).
Turning to “ACAUGAGACGUAGGAUAUAUUGUACCUACAUGUGACAUGAGGAUCACCCAUGUGGUAAGUAUGACAUAGAAGGACGAGAUAUGU [Equivalance 94 - Jieux - Same State NG 2] (Eterna round: R96, puzzle: Same State NG 2)”, the “apparent KD of MS2 coat protein” value was 48.6 nM (input ligand: FMN 200 uM), 49.7 nM under setting [4] and 64.3 nM (input ligand: none).
Taken in the same sequence, the figures for “ACAUGAGACUUAGGAUAUGUUGUACCUACAUGUGACAUGAGGAUCACCCAUGUGGUAAGUAUGAUACAGAAGGAAGAGAUAUGU [Equivalance 66 - Jieux - Same State NG 2] (Eterna round: R96, puzzle: Same State NG 2)” were 17.2 nM, 27.5 nM and 42.9 nM.
Taken in the same sequence, the figures for “ACAUGAGAGAUAGGAUAUCGUGUACCUACAUGUGACAUGAGGAUCACCCAUGUGGUAAGUAUGAGCGAGAAGGAUCAGAUAUGU [Equivalence 50 - Jieux - Same State NG 2] (Eterna round: R96, puzzle: Same State NG 2)” were 24.6 nM, 43.1 nM and 78.4 nM.
Taken in the same sequence, the figures for “ACAUGAGAUAGAGGAUAUAUUGUACCUACAUGUGACAUGAGGAUCACCCAUGUGGUAAGUAUGACAUAGAAGGCUGAGAUAUGU [Equivalance 83 - Jieux - Same State NG 2] (Eterna round: R96, puzzle: Same State NG 2)” were 69.8 nM, 67.5 nM and 77 nM.
For “ACAUGAGAUGGAGGAUAUUUUGUACCUACAUGUGACAUGAGGAUCACCCAUGUGGUAAGUAUGAGAAAGAAGGCCAAGAUAUGU [Equivalence 17 - Jieux - Same State NG 2] (Eterna round: R96, puzzle: Same State NG 2)”, the “apparent KD of MS2 coat protein” value is, setting by setting: (input ligand: FMN 200 uM) 17.6 nM; under setting [4], 18.4 nM; (input ligand: none) 28.5 nM.
With “ACAUGAGGAUCACCCAUGUAUAGAAUUGAAUGUUAAGAUACGUAGGAUAUCGAGAUUAGUAUGAUCGAGAAGGACGAUUAGAUA [JR_SSNG3_Sub064] (Eterna round: R96, puzzle: Same State NG 3)”, the “apparent KD of MS2 coat protein” value runs as follows: (input ligand: FMN 200 uM) 12.6 nM; under setting [4], 16.6 nM; (input ligand: none) 20.3 nM.
Taken in the same sequence, the figures for “ACAUGAGGAUCACCCAUGUAUGCUCAGGAAACUGUGCAGCAUUAGGAUAUGGAUCCUAAUUGGAUCCAGAAGGAGUGAAUUAUU [Fiskers NG3ss - 26] (Eterna round: R96, puzzle: Same State NG 3)” were 82.2 nM, 117 nM and 126 nM.
As to “ACCCGAAGUAUAUGGGAACAAGCUUUUUAACAUGAGGAUCACCCAUGUACUCGUCUUAUAAGCAGUCGAAAGACUGC [Sensor 100 - 5] (puzzle: Sensor for hsa-mir-208a)”, the “apparent KD of MS2 coat protein” value was 21.7 nM under setting [1], 17.3 nM under setting [2] and 44.5 nM under setting [3].
For “ACGCAGCUGGGUAAGGAUAUCGGUGGUAAAACAUGAGGAUCACCCAUGUCCGAAGCUCGGACUUCCGAGAAGGUGCCCGGCUGCG [Soinraesar Omei Mod 6] (puzzle: Same State 2)” the same measures were 23.8 nM, 222 nM and 218 nM.
For “ACGCAGCUGGGUGAGGAUAUUGGUGGUACAACAUGAGGAUCACCCAUGUCCGAAGCUCGGACCUCCGAGAAGGCGCCCGGCUGCG [Soinraesar Omei Mod 4] (puzzle: Same State 2)” the same measures were 39.7 nM, 269 nM and 912 nM.
For “AGAAUGCACAUGAGGAUCACCCAUGUACCCGGCUGGCAUUUGCAGGAUAUGCCGCGGCGAGCCCAGCAGAAGGGCAAGUGCUAA [Eternabot solution 4] (Eterna round: R96, puzzle: Same State NG 3)”, the “apparent KD of MS2 coat protein” value was found to be 25.8 nM (input ligand: FMN 200 uM), 19 nM under setting [4] and 26.9 nM (input ligand: none).
For “AGAGCCGGCACUGAGGAUAUUCAUAAUAAAACAUGAGGAUCACCCAUGUAGGCCAGAAGGCCUUGGGAGAAGGCAGGUCGGCUCA [Mat - Same State 2 - Mod of UCT - D67] (puzzle: Same State 2)”, the “apparent KD of MS2 coat protein” value turned out to be 16.7 nM under setting [1], 176 nM under setting [2] and 269 nM under setting [3].
Taken in the same sequence, the figures for “AGCAAUCUAUCUCAGGAUAUCAUGUCAAAGACAUGAGGAUCACCCAUGUACCAGGAAACUGGUUAUGAGAAGGGAGAUAGAUUGA [Mat - Same State 2 - Mod - D29] (puzzle: Same State 2)” were 154 nM, 52.2 nM and 177 nM.
Take “AGCCGAGACACAGGAUAUACAUGUUUACAUGAGGAUCACCCAUGUAGCAACACGUGGUAGUGAUUGUAGAAGGGUGCUCGGCGC [Omei SS(NG)2 Cv12] (Eterna round: R96, puzzle: Same State NG 2)”: the “apparent KD of MS2 coat protein” value is 15.8 nM (input ligand: FMN 200 uM), 12.6 nM under setting [4] and 23.3 nM (input ligand: none).
With “AGCCGAGACUGAGGAUAUAGAAAUCUACAUGAGGAUCACCCAUGUAACAACACGUGGUAGUGAUUCUAGAAGGCGGCUCGGCGC [Omei SS(NG)2 Cv4] (Eterna round: R96, puzzle: Same State NG 2)”, the “apparent KD of MS2 coat protein” value reads like this: (input ligand: FMN 200 uM) 113 nM; under setting [4], 279 nM; (input ligand: none) 1150 nM.
As to “AGCUAUCGAAAACGAUAGCAAAAGCAUGUACAUGAGGAUCACCCAUGUCAUGUACAAGUUUUUUGCUCGUCUUAAAA [Zipper 23 - 13] (puzzle: Sensor for hsa-mir-208a)”, the “apparent KD of MS2 coat protein” value under setting [1] was determined as 107 nM, the “apparent KD of MS2 coat protein” value under setting [2] came to 13.1 nM and the “apparent KD of MS2 coat protein” value under setting [3] was found to be 121 nM.
Taken in the same sequence, the figures for “AGCUAUCGAAAACGAUAGCAAGAGCAUGUACAUGAGGAUCACCCAUGUCAUGUACAAGCUUUUUGCUCGUCUUAAAA [Zipper 23 - 2] (puzzle: Sensor for hsa-mir-208a)” were 330 nM, 17 nM and 490 nM.
Taken in the same sequence, the figures for “AGCUAUCGCGUACGAUAGCUGAAGCAUGUACAUGAGGAUCACCCAUGUCAUGUGCAGGCUUUUUGCUCGUCUUAUUG [JL-shm-2.30 JL mod] (puzzle: Sensor for hsa-mir-208a)” were 68.9 nM, 13.3 nM and 75.1 nM.
Regarding “AGCUAUCGCGUACGAUAGCUGAAGCGUGUACAUGAGGAUCACCCAUGUCAUGUGCAGGCUUUUUGCUCGUCUUAUUG [JL-shm-2.31 JL mod] (puzzle: Sensor for hsa-mir-208a)”, the “apparent KD of MS2 coat protein” value was 640 nM under setting [1], 17.2 nM under setting [2] and 648 nM under setting [3].
With “AGCUAUUACGAAGGAUAUUGUAACAUGAGGAUCACCCAUGUUUACAUGAUUAAUUGUGAUCACGUCGAGAAGGUUGUACUAACA [SameState NG2 #33] (Eterna round: R96, puzzle: Same State NG 2)”, the “apparent KD of MS2 coat protein” value (input ligand: FMN 200 uM) stood at 17.5 nM, the “apparent KD of MS2 coat protein” value under setting [4] worked out at 16.5 nM and the “apparent KD of MS2 coat protein” value (input ligand: none) is 19 nM.
For “AGCUUACAUGAGGAUCACCCAUGUUUUAGCCAGACAGGAUAUGGGUAUCUAAAACACAACCCAGAAGGGUCAAAAC [Usveriri] (puzzle: Same State 1)”, the “apparent KD of MS2 coat protein” value is, setting by setting: under setting [1], 57.5 nM; under setting [2], 233 nM; under setting [3], 489 nM.
Consider “AGCUUUUAAUUAGGAUAUGGUCACAUGAGGAUCACCCAUGUAACGAUGAUAUAAUGUGGUCAAGACUAGAAGGGAUCGCUAACA [SameState NG2 #69] (Eterna round: R96, puzzle: Same State NG 2)”, for which the “apparent KD of MS2 coat protein” value (input ligand: FMN 200 uM) turned out to be 320 nM, the “apparent KD of MS2 coat protein” value under setting [4] is 282 nM and the “apparent KD of MS2 coat protein” value (input ligand: none) came to 284 nM.
Taken in the same sequence, the figures for “AGGCUCAGACGAGGAUAUACGUGGUCACAUGAGGAUCACCCAUGUCUCGAGCUUCGGCUCGAGGCGUAGAAGGCGUCUGAGCCA [SSNG2/6-A1] (Eterna round: R96, puzzle: Same State NG 2)” were 152 nM, 201 nM and 268 nM.
